This is an account of results in patent US20040086941A1 (Takeda / Millennium, published 2004).

Positions of bridges follow the written chain, without caps; N, C: chain ends. No end group written: not given here.

Assay [1] concerns the target T1, human receptor protein SLT (hSLT) (human, UniProt Q969V1 1-340).
T1 construct: Full-length human SLT expressed in CHO dhfr- cells; also called human SLT; CHO/hSLT cells
In words: radioligand competition; [125I]-labeled MCH(4-19) on membrane fraction (30 ug/ml) of human SLT-expressing CHO cells, filtration. How it is done:
Receptor binding assay was performed using [¹²⁵I]-labeled MCH (4-19) prepared in REFERENCE EXAMPLE 3 using Bolton-Hunter reagent and the cell membrane fraction prepared from human SLT-expressing CHO cells.
The cell membrane fraction prepared from human SLT-expressing CHO cells according to EXAMPLE 6 was diluted at various concentrations with the assay buffer (50 mM Tris-HCl, 5 mM EGTA (ethyleneglycol-bis(aminoethylether) tetraacetic acid), 5 mM magnesium acetate, 0.05% CHAPS, 0.1% BSA (bovine serum albumin), 0.25 mM PMSF (phenylmethylsulfonyl fluoride), 1 μg/ml pepstatin, 20 μg/ml leupeptin, pH 7.4). A 200 μl aliquot of each dilution was then dispensed in a polypropylene testing tube (Falcon, Inc., 2053). Two μl of DMSO and 2 μl of 20 nM [¹²⁵I]-labeled MCH (4-19) were added to the membrane fraction solution to determine the amount of total binding (TB), and 2 μl of a solution of 100 μM MCH in DMSO and 2 μl of […] [¹²⁵I]-labeled MCH (4-19) were added thereto to determine the amount of non-specific binding (NSB). After reaction at 25° C. for 60 minutes, the reaction solution was filtered with suction through a polyethyleneimine-treated glass filter (Whatman Co., GF-F). Following the filtration, the radioactivity of [¹²⁵I]-labeled MCH (4-19) remaining on the filter paper was measured with a γ-counter.
As a result, the IC₅₀ value was approximately 20 nM (FIG. 4). […]

Assay [2] deals with T1, human receptor protein SLT (hSLT). As to the kind of experiment: cell-based or functional assay.

T1 sequence (Q969V1 whole entry): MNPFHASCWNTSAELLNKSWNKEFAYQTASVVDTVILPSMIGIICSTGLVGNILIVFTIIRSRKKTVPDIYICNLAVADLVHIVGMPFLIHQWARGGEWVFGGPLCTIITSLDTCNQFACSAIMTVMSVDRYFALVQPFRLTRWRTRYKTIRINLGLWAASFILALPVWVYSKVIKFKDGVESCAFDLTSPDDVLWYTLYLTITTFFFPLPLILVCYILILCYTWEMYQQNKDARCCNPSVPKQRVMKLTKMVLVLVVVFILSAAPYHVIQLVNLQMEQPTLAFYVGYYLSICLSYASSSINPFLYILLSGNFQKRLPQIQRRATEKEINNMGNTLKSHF

B1: Des-[Asp1, Phe2, Asp3]-MCH (MCH(4-19)) (peptide)
peptide: MLRCMLGRVYRPCWQV-OH
modifications: disulfide 4-13; N-terminus assumed
SMILES: CSCC[C@@H]1NC(=O)[C@@H](NC(=O)[C@H](CCCNC(=N)N)NC(=O)[C@H](CC(C)C)NC(=O)[C@@H](N)CCSC)CSSC[C@@H](C(=O)N[C@@H](Cc2c[nH]c3ccccc23)C(=O)N[C@@H](CCC(N)=O)C(=O)N[C@H](C(=O)O)C(C)C)NC(=O)[C@@H]2CCCN2C(=O)[C@H](CCCNC(=N)N)NC(=O)[C@H](Cc2ccc(O)cc2)NC(=O)[C@H](C(C)C)NC(=O)[C@H](CCCNC(=N)N)NC(=O)CNC(=O)[C@H](CC(C)C)NC1=O
notes: also called amino terminal-truncated form of MCH; N-terminal truncated form
B1 displayed an IC50 in assay [1] of 3.3 nM.

Molecule DFDMLRCMLGRVYRPCWQV (disulfide 7-16) [melanin-concentrating hormone, MCH (synthetic human MCH)] showed a half-maximal inhibitory concentration (IC50) in assay [1] of roughly 20 nM. In addition, the “release of [3H] arachidonic acid metabolite in human SLT-expressing CHO cells, EC50” value in assay [2] came out at 0.57 nM.
